The target in experiment [1] is T1, TWEAKR (TNFRSF12A, FN14), human, on tumor cell lines (human, UniProt Q9NP84 28-129).
T1 construct: endogenous receptor on human cancer cell lines; also called TWEAK receptor; CD266
The experiment is described as follows: FACS, A375 cells, 10 ug/ml. Background: Flow cytometry measures light scatter and fluorescence of single cells or particles in a stream.
Procedure: (§1) To determine the binding characteristics of the anti-TWEAKR antibodies on mouse and human cancer cell lines, binding was tested by flow cytometry to a panel of cell lines. […] Cells were suspended at approximately 10⁵ cells/well in FACS buffer (PBS without Ca/Mg, containing 3% FCS, Biochrom). Cells were centrifuged (250 g, 5 min, 4° C.) and supernatant discarded. Cells were resuspended in dilutions of the antibodies of interest (10 μg/ml in 80 μl if not indicated otherwise) in FACS buffer, and incubated on ice for 1 h. […] After incubation for 1 h on ice cells were again washed with cold FACS buffer, resuspended in 1000 FACS buffer and analyzed by flow cytometry using a FACS-Array (BD Biosciences). Results are calculated as Geo Mean of fluorescence detected by the antibody of interest subtracted by background fluorescence as measured by detection with the secondary antibody alone. Values are scored according to the following system: Geo Mean−Geo Mean of secondary antibody alone >10: +, >100: ++, >1000: +++, 10000: ++++, close to category border in ( ).

Experiment [2] addresses T2, TPP-1984 (hTNFRSF12Aaa28-68-CT-His) (human).
T2 construct: monomeric ectodomain with HIS6 tag; also called TWEAKR(28-68)-HIS; C-terminally truncated TWEAKR ectodomain
T2 chain: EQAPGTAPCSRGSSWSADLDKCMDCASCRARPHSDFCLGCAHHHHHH
Nature of the experiment: ELISA, TPP-1984 coated at 1 µg/ml, biotinylated IgG at 0.08 µg/ml (open bar) and 0.3 µg/ml (filled bar), Streptavidin-HRP, Amplex Red. Background: In an ELISA, binding on a coated surface is turned into a signal by an enzyme label.
Procedure: (§2) Detection was done with Streptavidin-HRP and Amplex-Red substrate.
(§3) To analyze for binding, 1 μg/ml of the respective dimeric TWEAKR-Fc construct were coated and, 0.3 μg/ml and 0.08 μg/ml of biotinylated IgG were used as soluble binding partner. Detection was done with Streptavidin-HRP and Amplex-Red substrate.

In experiment [3] the target is T1, TWEAKR (TNFRSF12A, FN14), human, on …. Nature of the experiment: cell-based or functional assay.
For experiment [4], the target named is T3, TPP-2614 (TweakR-ECD-34-68-hIgGFc-His-D47A) (human).
T3 construct: also called D47A TWEAKR mutein
The experiment is described as follows: ELISA, IgG coated 1 ug/ml, TWEAKR variant 250 ng/ml, anti-HIS HRP (FIG. 6C).
Procedure: Antibodies were coated (1 μg/ml), TWEAKR variant was added at 250 ng/ml, detection via anti-HIS HRP. […] Antibodies were coated (1 μg/ml), TWEAKR variant was added 250 ng/ml, detection via anti-HIS HRP.

In experiment [5] the target is T4, TPP-2203 (TWEAKR-ECD-34-68-hIgGFc-His) (human).
T4 construct: dimeric; also called TWEAKR(34-68)-Fc fusion protein; truncated ectodomain 34-68
The experiment is described as follows: ELISA, TPP-2203 coated at 1 µg/ml, biotinylated IgG at 0.08 µg/ml (open bar) and 0.3 µg/ml (filled bar), Streptavidin-HRP, Amplex Red.
Procedure: as §2, §3

The target in experiment [6] is T1, TWEAKR (TNFRSF12A, FN14), human, on …. The experiment is described as follows: FACS, SKOV-3 cells, 10 ug/ml.
Procedure: as §1
The target is the same in experiment [7]. Nature of the experiment: FACS, WiDr cells, 10 ug/ml.
Procedure: as §1
Experiment [8] shares this target. Nature of the experiment: FACS, HT29 cells, 10 ug/ml.
Procedure: as §1
The target of experiment [9] is T5, TPP-2305 (hTNFRSF12Aaa28-80) (Human, UniProt Q9NP84 28-80).
T5 construct: monomeric extracellular domain, bought; also called purified recombinant human TWEAKR protein; soluble monomeric TWEAKR
Nature of the experiment: SPR (Biacore T100), IgG captured, TPP-2305 injected, 1:1 model. (In general: Surface plasmon resonance follows binding to a sensor surface in real time, without labels.)
Procedure: Binding affinities of anti-TWEAKR antibodies were determined by surface plasmon resonance analysis on a Biacore T100 instrument (GE Healthcare Biacore, Inc.). Antibodies were immobilized onto a CM5 sensor chip through an indirect capturing reagent, anti-human IgG(Fc). […] Anti-TWEAKR antibodies were injected at a concentration of 10 μg/ml at 10 μl/min for 10 sec.
Sensorgrams were generated after in-line reference cell correction followed by buffer sample subtraction. The dissociation equilibrium constant (KD) was calculated based on the ratio of association (kₒₙ) and dissociation rated (koff) constants, obtained by fitting sensorgrams with a first order 1:1 binding model.

Experiment [10] has as its target TPP-1988 (hTNFRSF12Aaa28-80-M50A-hIgG1-Fc) (human). Nature of the experiment: ELISA, TWEAKR-Fc coated 62 ng/ml, biotin-IgG titrated; + means IC50 1 to 150 pM.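 Note: biotinylated IgG binding to immobilized TWEAKR-Fc muteins, detected with Streptavidin-HRP and Amplex Red, IC50 derived from fitted dose-response curves of twofold serial dilutions.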
Procedure: (§4) To collect dose-response data, the different TWEAKR-Fc muteins were coated with a low concentration (62 ng/ml) in a 384-well Maxisorb ELISA plate and a serial 2fold dilution of biotinylated IgG starting with a concentration of 100 nM was used as soluble binding partner. Detection was done with Streptavidin-HRP and Amplex Red.
(§5) The dose-response data were fitted and IC50s determined.
In experiment [11] the target is TPP-1987 (hTNFRSF12Aaa28-80-S40R-hIgG1-Fc) (human). The experiment is described as above.
Procedure: as §4, §5
For experiment [12], the target named is TPP-1986 (hTNFRSF12Aaa28-80-T33Q-hIgG1-Fc) (human). The experiment is described as above.
Procedure: as §4, §5
Experiment [13] concerns the target TPP-1989 (hTNFRSF12Aaa28-80-H60K-hIgG1-Fc) (human). The experiment is described as above.
Procedure: as §4, §5
In experiment [14] the target is TPP-2683 (hTNFRSF12Aaa28-80-R56P-hIgG1-Fc) (human). The experiment is described as above.
Procedure: as §4, §5
Experiment [15] addresses TPP-1990 (hTNFRSF12Aaa28-80-L65Q-hIgG1-Fc) (human). The description is as above.
Procedure: as §4, §5
The target in experiment [16] is T1, TWEAKR (TNFRSF12A, FN14), human, on …. Nature of the experiment: cell-based or functional assay. This is another data set of the same source.
Experiment [17] addresses T6, TPP-599 (HUMAN-TNFRSF12Aaa28-80-hIgG1-Fc) (human).
T6 construct: dimeric; also called human TWEAKR Fc; TWEAKR-Fc
The experiment is described as follows: SPR, TWEAKR-Fc immobilized, IgG injected, bivalent analyte model (avidity mode).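 Note: kd derived as the ratio of fitted dissociation to association rate constants, with sensorgrams corrected against a reference flow cell and a buffer blank before fitting.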
Procedure: (§6) Sensorgrams were generated after in-line reference cell correction followed by buffer sample subtraction. The dissociation equilibrium constant (KD) was calculated based on the ratio of association (kₒₙ₁) and dissociation rated (koff1) constants, obtained by fitting sensorgrams with a bivalent analyte model using Biavaluation Software (version 4.0).

In experiment [18] the target is T7, TPP-1846 (MAC-TNFRSF12Aaa28-80-hIgG1-Fc) (macaca fascicularis).
T7 construct: bivalent antigen; also called mac fasc TWEAKR Fc
Described as above.
Procedure: as §6

Experiment [19] deals with T8, TPP-1778 (PIG-TNFRSF12Aaa28-80-hIgG1-Fc) (pig).
T8 construct: bivalent antigen; also called pig TWEAKR Fc
Described as above.
Procedure: as §6

In experiment [20] the target is T9, TPP-1779 (RAT-TNFRSF12Aaa28-80-hIgG1-Fc) (rat).
T9 construct: bivalent antigen; also called rat TWEAKR Fc
The experiment is described as above.
Procedure: as §6

The target in experiment [21] is T10, TPP-1777 (DOG-TNFRSF12Aaa28-80-hIgG1-Fc) (dog).
T10 construct: bivalent antigen; also called dog TWEAKR Fc
The experiment is described as above.
Procedure: as §6

The target of experiment [22] is T11, TPP-601 (MURINE-TNFRSF12Aaa28-80-hIgG1-Fc) (murine).
T11 construct: dimeric; also called murine TWEAKR Fc
Described as above.
Procedure: as §6

Experiment [23] deals with T1, TWEAKR (TNFRSF12A, FN14), human, on …. Nature of the experiment: FACS, NCI-H322 cells, 10 ug/ml.
Procedure: as §1
For experiment [24] the target is unchanged. Nature of the experiment: cell-based or functional assay. This is another data set of the same source.
Experiment [25] shares this target. The experiment is described as follows: FACS, 786-O cells, 10 ug/ml.
Procedure: as §1
For experiment [26], the target named is T12, TPP-2202 (TWEAKR-ECD-28-80-hIgGFc-His) (human).
T12 construct: dimeric; also called TWEAKR-Fc fusion protein; full ectodomain 28-80
The experiment is described as follows: ELISA, TPP-2202 coated at 1 µg/ml, biotinylated IgG at 0.08 µg/ml (open bar) and 0.3 µg/ml (filled bar), Streptavidin-HRP, Amplex Red.
Procedure: as §2, §3

The target in experiment [27] is T6, TPP-599 …. Nature of the experiment: ELISA, 2.5 nM biotinylated TWEAKR-Fc coated, soluble Fab, anti-c-Myc detection.
The target in experiment [28] is T3, TPP-2614 …. Nature of the experiment: ELISA, PDL-192(TPP-1104) coated at 1 µg/ml, eight-fold diluted HEK293 supernatant with the TWEAKR(34-68)-Fc mutein, anti-HIS-HRP, Amplex Red.
Procedure: S37A, R38A, S40A, W42A, S43A, D45A, D47A, K48A, D51A, S54A, R56A, R58A, P59A, H60A, S61A, D62A, F63A and L65A muteins were expressed in HEK293 cells (black diamonds).
These TWEAKR(34-68)-Fc muteins were expressed in HEK293 cells. To collect dose-response data, IgGs were coated at a concentration of 1 μg/ml in a 384-well Maxisorp ELISA plate and a serial 2fold dilution of the TWEAKR mutein containing supernatant was used as soluble binding partner. Detection was done with anti-HIS-HRP and Amplex Red.

Positions count from the first letter of the chain named. Numbers in names are those of the source.

B1: TPP-2084 (antibody, human IgG1, kappa, V domains shown)
VH: EVQLLESGGGLVQPGGSLRLSCAASGFTFSPYPMMWVRQAPGKGLEWVSYISPSGGSTHYADSVKGRFTISRDNSKNTLYLQMNSLRAEDTAVYYCARGGDTYFDYFDYWGQGTLVTVSS
VL: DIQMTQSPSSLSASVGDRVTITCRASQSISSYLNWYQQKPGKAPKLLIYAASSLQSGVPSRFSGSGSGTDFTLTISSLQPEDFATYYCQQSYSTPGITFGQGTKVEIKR
notes: Human IgG1
The koff is the first-order rate constant of dissociation. Higher therefore signals a short-lived complex. What is called kon is the rate constant with which the complex forms. A higher kon goes with fast association. With B1, the “GeoMean of Fluorescence minus GeoMean with the secondary antibody only” value stood at 199 in [1]; 1660 in experiment [6]; 1350 in [7]; 750 in experiment [8]; 126 in experiment [23]; 16300 in experiment [25]. The binding result in [2], in experiment [5], in experiment [10], in experiment [11], in experiment [12] and in [13] was “binds” throughout. Moreover, the binding result in experiment [14], in experiment [15] and in [26] was “binds” in each case. Moreover, the “% Inhibition of proliferation, 786-O cells, 96h, 100 ug/ml” value in experiment [3] turned out to be 68%. The “% Inhibition of proliferation, A253 cells, 72h, 100 ug/ml” value in [3] was > 100%. Besides, in experiment [3], the “% Inhibition of proliferation, HT-29 cells, 24h, 100 ug/ml” value was determined as 98%. Also, in experiment [3], the “% Inhibition of proliferation, WiDr cells, 96h, 100 ug/ml” value worked out at 52%. For the same molecule, the “% binding normalized by wt binding signal” value in experiment [4] was < 5%. Moreover, the Kd in experiment [9] stood at 27.6 nM; in experiment [17] it was 16.2 nM; in [18], 23.8 nM; in experiment [19], 34.2 nM; in experiment [20], 21.1 nM; in experiment [21] it was 17 nM. Further, the Kd in experiment [22] came out at 4 nM. This molecule had a koff in experiment [9] of 0.11 s⁻¹. For the same molecule, the kon in [9] came to 4.2e+06 M⁻¹ s⁻¹. The “Fold induction of Caspase 3/7, 786-O cells, 100 ug/ml” value in [16] was 1.61 fold. The “Fold induction of Caspase 3/7, A253 cells, 100 ug/ml” value in [16] came to 1.6 fold. In addition, in experiment [16], the “Fold induction of Caspase 3/7, HT-29 cells, 100 ug/ml” value is 2.59 fold. For the same molecule, the “Fold induction of Caspase 3/7, NCI-H322 cells, 100 ug/ml” value in [16] is 1.58 fold. In addition, the “IL-8 release from A375 cells at 100 ug/ml, % of the activation by 300 ng/ml TWEAK ligand” value in experiment [24] came to 113%.

B2: TPP-883 Fab variant S94T of CDR-L3 (Fab, V domains shown)
VH: B1 VH with S57K, T102G
VL: DIQMTQSPATLSASVGDRVTITCRASQSISSYLNWYQQKPGKAPKLLIYAASSLQSGVPSRFSGSGSGTDFTLTISSLQPEDFATYYCQQSYTSPGITFGPGTKVEIK
For the molecule B2, the binding result in experiment [27] was “binds”.

B3: TPP-883 Fab variant G97F of CDR-L3 (Fab, V domains shown)
VH: B1 VH with S57K, T102G
VL: B2 VL with T93S, G96F
B3: in [27], the binding result is recorded as “binds”.

B4: TPP-883 Fab variant A51Q of CDR-L2 (Fab, V domains shown)
VH: B1 VH with S57K, T102G
VL: B2 VL with A50Q, T93S
With B4, the binding result in experiment [27] is on record as “binds”.

B5: PDL-192(TPP-1104) (antibody, human IgG1, kappa, V domains shown)
VH: QVELVESGGGLVQPGGSLRLSCAASGFTFSSYWMSWVRQAPGKGLEWVAEIRLKSDNYATHYAESVKGRFTISRDDSKNSLYLQMNSLRAEDTAVYYCTGYYADAMDYWGQGTLVTVSS
VL: DIQMTQSPSSLSASVGDRVTITCRASQSVSTSSYSYMHWYQQKPGKAPKLLIKYASNLESGVPSRFSGSGSGTDFTLTISSLQPEDFATYYCQHSWEIPYTFGGGTKVEIKR
notes: Human IgG1; variable domains from WO2009/020933 with constant region added
In the case of B5, the binding result in experiment [28] and in [10] was “binds” each time.

The values are drawn from US20160237160A1 (Bayer, published 2016).
